Test results: patent US20230338465A1 (VITRUVIAE, published 2023)
Where “and” joins values, the source holds several entries; their conditions need not be identical. Equal entries are not always repeated. Where two headings read alike, the source gives them in different places.

Legend:
Assay in all cases: ELISA, 2.5 mM CaCl2
[1] = target: T1, SARS-Cov-2 S D614G (SARS-CoV-2, UniProt P0DTC2 16-1213)
T1 construct: also called SARS-CoV-2 S protein (D614G); SARS-COV2 S Protein

[2] = target: T1, SARS-Cov-2 S D614G; remark: listed apart in the source
[3] = target: T1, SARS-Cov-2 S D614G; remark: listed apart in the source
[4] = target: T1, SARS-Cov-2 S D614G; remark: listed apart in the source

Row | Binder | EC50 [1] | EC50 [2] [nM] | EC50 [3] [µg/mL] | EC50 [4]
1 | VP020 (V-CTLD-1 with V-IGG4-ADC-B-Fc) (Fc fusion, also called CT-G4-B-DC; VIT-308) ERLCHPCPWEWTFFQGNCYFMSNSQRNWHDSITACKEVGAQLVVIKSAEEQNFLQLQSSRSNRFTWMGLSDLNQEGTWQWVDGSPLLPSFKQYWNRGEPNNVGEEDCAEFSGNGWNDDKCNLAKFWICKKSAASCSGGGGSGGGGSGGGGSKYGPPCPPCPAPEAAGGPSVFLFPPKPKDTLMISRTPEVTCVVVDVSQEDPEVQFNWYVDGVEVHNAKTKPREEQFNSTYRVVSVLTVLHQDWLNGKEYKCAVSNKGLPSSIEKTISKCKGQPREPQVYTLPPSQEEMTKNQVSLTCLVKGFYPSDIAVEWESNGQPENNYKTTPPVLDSDGSFLLYSKLTVDKSRWQEGNVFSCSVMHEALHNHYTQKSLSLSLGK | 55.6 µg/mL and 641 nM | 52.5 | 4.5 | –
2 | VP019-F2 (multimer fraction F2 of VP019, V-TIM1-1 with V-IGG4-ADC-A-Fc) (Fc fusion, also called TM-G4-A-DC; VIT-307) SVKVGGEAGPSVTLPCHYSGAVTSMCWNRGSCSLFTCQNGIVWTNGTHVTYRKDTRYKLLGDLSRRDVSLTIENTAVSDSGVYCCRVEHRGWFNDMKITVSLEIVGGGGSGGGGSGGGGSKYGPPCPPCPAPEAAGGPSVFLFPPKPKDTLMISRTPEVTCVVVDVSQEDPEVQFNWYVDGVEVHNAKTKPREEQFNSTYRVVSVLTVLHQDWLNGKEYKCAVSNKGLPSSIEKTISKCKGQPREPQVYTLPPSQEEMTKNQVSLTCLVKGFYPSDIAVEWESNGQPENNYKTTPPVLDSDGSFFLYSRLTVDKSRWQEGNVFSCSVMHEALHNHYTQKSLSLSLGK | 0.9 µg/mL and 10.6 nM | 21.1 | 1.7 | –
3 | VP025-F4 (fraction 4 of VP025-CT, VP019/VP020 heterodimer, about 78% pure) (Fc fusion, also called VP025-F4 (78% pure heterodimer)) chain 1: SVKVGGEAGPSVTLPCHYSGAVTSMCWNRGSCSLFTCQNGIVWTNGTHVTYRKDTRYKLLGDLSRRDVSLTIENTAVSDSGVYCCRVEHRGWFNDMKITVSLEIVGGGGSGGGGSGGGGSKYGPPCPPCPAPEAAGGPSVFLFPPKPKDTLMISRTPEVTCVVVDVSQEDPEVQFNWYVDGVEVHNAKTKPREEQFNSTYRVVSVLTVLHQDWLNGKEYKCAVSNKGLPSSIEKTISKCKGQPREPQVYTLPPSQEEMTKNQVSLTCLVKGFYPSDIAVEWESNGQPENNYKTTPPVLDSDGSFFLYSRLTVDKSRWQEGNVFSCSVMHEALHNHYTQKSLSLSLGK chain 2: ERLCHPCPWEWTFFQGNCYFMSNSQRNWHDSITACKEVGAQLVVIKSAEEQNFLQLQSSRSNRFTWMGLSDLNQEGTWQWVDGSPLLPSFKQYWNRGEPNNVGEEDCAEFSGNGWNDDKCNLAKFWICKKSAASCSGGGGSGGGGSGGGGSKYGPPCPPCPAPEAAGGPSVFLFPPKPKDTLMISRTPEVTCVVVDVSQEDPEVQFNWYVDGVEVHNAKTKPREEQFNSTYRVVSVLTVLHQDWLNGKEYKCAVSNKGLPSSIEKTISKCKGQPREPQVYTLPPSQEEMTKNQVSLTCLVKGFYPSDIAVEWESNGQPENNYKTTPPVLDSDGSFLLYSKLTVDKSRWQEGNVFSCSVMHEALHNHYTQKSLSLSLGK | – | 10 | 0.8 | –
4 | VP025-CT (co-transfected product of genes TM-G4-A-DC and CT-G4-B-DC, heterodimer mixture) (Fc fusion, also called VP025-CT (heterodimer mixture)) chain 1: SVKVGGEAGPSVTLPCHYSGAVTSMCWNRGSCSLFTCQNGIVWTNGTHVTYRKDTRYKLLGDLSRRDVSLTIENTAVSDSGVYCCRVEHRGWFNDMKITVSLEIVGGGGSGGGGSGGGGSKYGPPCPPCPAPEAAGGPSVFLFPPKPKDTLMISRTPEVTCVVVDVSQEDPEVQFNWYVDGVEVHNAKTKPREEQFNSTYRVVSVLTVLHQDWLNGKEYKCAVSNKGLPSSIEKTISKCKGQPREPQVYTLPPSQEEMTKNQVSLTCLVKGFYPSDIAVEWESNGQPENNYKTTPPVLDSDGSFFLYSRLTVDKSRWQEGNVFSCSVMHEALHNHYTQKSLSLSLGK chain 2: ERLCHPCPWEWTFFQGNCYFMSNSQRNWHDSITACKEVGAQLVVIKSAEEQNFLQLQSSRSNRFTWMGLSDLNQEGTWQWVDGSPLLPSFKQYWNRGEPNNVGEEDCAEFSGNGWNDDKCNLAKFWICKKSAASCSGGGGSGGGGSGGGGSKYGPPCPPCPAPEAAGGPSVFLFPPKPKDTLMISRTPEVTCVVVDVSQEDPEVQFNWYVDGVEVHNAKTKPREEQFNSTYRVVSVLTVLHQDWLNGKEYKCAVSNKGLPSSIEKTISKCKGQPREPQVYTLPPSQEEMTKNQVSLTCLVKGFYPSDIAVEWESNGQPENNYKTTPPVLDSDGSFLLYSKLTVDKSRWQEGNVFSCSVMHEALHNHYTQKSLSLSLGK | 6.9 µg/mL and 82.5 nM | 13.8 | 1.2 | 4 µg/mL and 47.6 nM
